Data published in the supplement of paper PMC11316812.
± gives the standard deviation of the averaged measurements.

Experiments:
[1] = system: hTERT-HMEC; test: percentage of EdU-negative (G0-arrested) nuclei per well, 72 h; higher = more G0 arrest; settings: reference: sequence is the full UniProt precursor, the tested protein was the secreted form or ectodomain
[2] = system: MCF7; test: as above; settings: reference: sequence is the full UniProt precursor, the tested protein was the secreted form or ectodomain
[3] = protein concentration 0.0225 µM
[4] = protein concentration 0.00925 µM
[5] = protein concentration 0.0925 µM
[6] = protein concentration 0.0115 µM
[7] = protein concentration 0.00575 µM
[8] = protein concentration 0.0575 µM
[9] = protein concentration 0.01025 µM
[10] = protein concentration 0.1025 µM
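Note: secreted proteins added to cultured cells, EdU pulse at the end, nuclei found by Hoechst imaging, EdU status from nuclear versus surrounding ring intensity ratio, PBS as neutral control.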

Sequence: MRTADREARPGLPSLLLLLLAGAGLSAASPPAAPRFNVSLDSVPELRWLPVLRHYDLDLVRAAMAQVIGDRVPKWVHVLIGKVVLELERFLPQPFTGEIRGMCDFMNLSLADCLLVNLAYESSVFCTSIVAQDSRGHIYHGRNLDYPFGNVLRKLTVDVQFLKNGQIAFTGTTFIGYVGLWTGQSPHKFTVSGDERDKGWWWENAIAALFRRHIPVSWLIRATLSESENFEAAVGKLAKTPLIADVYYIVGGTSPREGVVITRNRDGPADIWPLDPLNGAWFRVETNYDHWKPAPKEDDRRTSAIKALNATGQANLSLEALFQILSVVPVYNNFTIYTTVMSAGSPDKYMTRIRNPSRK
- percentage of EdU-negative [1, 3]: 5.28 ± 0.13%
- percentage of EdU-negative ([1]; protein concentration 0.225 µM): 7.812 ± 0.044%
- percentage of EdU-negative [2, 3]: 25.7 ± 0.36%
- percentage of EdU-negative ([2]; protein concentration 0.225 µM): 29.2 ± 3.5%

Sequence: MAPAGCCCCCCFWGGAVAAAGAARRVLLLLLLGVLSAGLRPGALATEHYSPLSLLKQELQHRQQQEAPAGGGGCSPQSGDWGDQYSAECGESSFLNFHDSDCEPKGSSPCDSLLSLNTEKILSQAKSIAEQKRFPFATDNDSTNEELAIAYVLIGSGLYDEAIRHFSTMLQEEPDLVSAIYGRGIAYGKKGLHDIKNAELALFELSRVITLEPDRPEVFEQRAEILSPLGRINEAVNDLTKAIQLQPSARLYRHRGTLYFISEDYATAHEDFQQSLELNKNQPIAMLYKGLTFFHRGLLKEAIESFKEALKQKVDFIDAYKSLGQAYRELGNFEAATESFQKALLLNQNHVQTLQLRGMMLYHHGSLQEALKNFKRCLQLEPYNEVCQYMKGLSHVAMGQFYEGIKAQTKVMLNDPLPGQKASPEYLKVKYLREYSRYLHAHLDTPLTEYNIDVDLPGSFKDHWAKNLPFLIEDYEEQPGLQPHIKDVLHQNFESYKPEVQELICVADRLGSLMQYETPGFLPNKRIHRAMGLAALEVMQAVQRTWTNSKVRMNGKTRLMQWRDMFDIAVKWRRIADPDQPVLWLDQMPARSLSRGFNNHINLIRGQVINMRYLEYFEKILHFIKDRILVYHGANNPKGLLEVREALEKVHKVEDLLPIMKQFNTKTKDGFTVNTKVPSLKDQGKEYDGFTITITGDKVGNILFSVETQTTEERTQLYHAEIDALYKDLTAKGKVLILSSEFGEADAVCNLILSLVYYFYNLMPLSRGSSVIAYSVIVGALMASGKEVAGKIPKGKLVDFEAMTAPGSEAFSKVAKSWMNLKSISPSYKTLPSVSETFPTLRSMIEVLNTDSSPRCLKKL [Q8NBP0]
- percentage of EdU-negative ([1]; protein concentration 0.012 µM): 5.436 ± 0.048%
- percentage of EdU-negative ([1]; protein concentration 0.12 µM): 11 ± 2.8%
- percentage of EdU-negative ([2]; protein concentration 0.012 µM): 25.9 ± 1.1%
- percentage of EdU-negative ([2]; protein concentration 0.12 µM): 27.7 ± 0.85%

Sequence: MAWMLLLILIMVHPGSCALWVSQPPEIRTLEGSSAFLPCSFNASQGRLAIGSVTWFRDEVVPGKEVRNGTPEFRGRLAPLASSRFLHDHQAELHIRDVRGHDASIYVCRVEVLGLGVGTGNGTRLVVEKEHPQLGAGTVLLLRAGFYAVSFLSVAVGSTVYYQGKCLTWKGPRRQLPAVVPAPLPPPCGSSAHLLPPVPGG
- percentage of EdU-negative [1, 3]: 4.49 ± 0.81%
- percentage of EdU-negative ([1]; protein concentration 0.225 µM): 4.92 ± 0.2%
- percentage of EdU-negative [2, 3]: 22.75 ± 0.21%
- percentage of EdU-negative ([2]; protein concentration 0.225 µM): 23.2 ± 1.3%

Sequence: MEACCLLQLPQRLLLLGAAALTATALETADLAELCGQTWQGDGLLLRSHAASRRFYFVAPDTDCGLWVQAAAPGDRIRFQFRFFLVYSLTPAPPALNTSSPAPADPCAPGSYLQFYEGPPGAPRPLGSPLCGLNIPVPVASSGPFLGLRLVTRGRQPRVDFVGEVTSFRLGPCGAYFRCQNGRCIPSSLVCDPWGMDNCGDGSDQGSWSPADCRGPSPVPSQTGSTDAHTSRSLTPSPALGSAGSLWIAAERSSPAGRDPTRQDAALEGSTE [Q5SZI1]
- percentage of EdU-negative [1, 3]: 5.13 ± 0.83%
- percentage of EdU-negative ([1]; protein concentration 0.225 µM): 5.979 ± 0.048%
- percentage of EdU-negative [2, 3]: 24.6 ± 1.8%
- percentage of EdU-negative ([2]; protein concentration 0.225 µM): 25.3 ± 0.88%

Sequence: MGCWGQLLVWFGAAGAILCSSPGSQETFLRSSPLPLASPSPRDPKVSAPPSILEPASPLNSPGTEGSWLFSTCGASGRHGPTQTQCDGAYAGTSVVVTVGAAGQLRGVQLWRVPGPGQYLISAYGAAGGKGAKNHLSRAHGVFVSAIFSLGLGESLYILVGQQGEDACPGGSPESQLVCLGESRAVEEHAAMDGSEGVPGSRRWAGGGGGGGGATYVFRVRAGELEPLLVAAGGGGRAYLRPRDRGRTQASPEKLENRSEAPGSGGRGGAAGGGGGWTSRAPSPQAGRSLQEGAEGGQGCSEAWATLGWAAAGGFGGGGGACTAGGGGGGYRGGDASETDNLWADGEDGVSFIHPSSELFLQPLAVTENHGEVEIRRHLNCSHCPLRDCQWQAELQLAECLCPEGMELAVDNVTCMDLHKPPGPLVLMVAVVATSTLSLLMVCGVLILVKQKKWQGLQEMRLPSPELELSKLRTSAIRTAPNPYYCQVGLGPAQSWPLPPGVTEVSPANVTLLRALGHGAFGEVYEGLVIGLPGDSSPLQVAIKTLPELCSPQDELDFLMEALIISKFRHQNIVRCVGLSLRATPRLILLELMSGGDMKSFLRHSRPHLGQPSPLVMRDLLQLAQDIAQGCHYLEENHFIHRDIAARNCLLSCAGPSRVAKIGDFGMARDIYRASYYRRGDRALLPVKWMPPEAFLEGIFTSKTDSWSFGVLLWEIFSLGYMPYPGRTNQEVLDFVVGGGRMDPPRGCPGPVYRIMTQCWQHEPELRPSFASILERLQYCTQDPDVLNSLLPMELGPTPEEEGTSGLGNRSLECLRPPQPQELSPEKLKSWGGSPLGPWLSSGLKPLKSRGLQPQNLWNPTYRS
- percentage of EdU-negative [1, 3]: 5.75 ± 1.3%
- percentage of EdU-negative ([1]; protein concentration 0.225 µM): 10.5 ± 0.56%
- percentage of EdU-negative [2, 3]: 26.78 ± 0.18%
- percentage of EdU-negative ([2]; protein concentration 0.225 µM): 28.3 ± 2.3%

Sequence: MKLNLVQIFFMLLMLLLGLGMGLGLGLHMATAVLEESDQPLNEFWSSDSQDKAEATEEGDGTQTTETLVLSNKEVVQPGWPEDPILGEDEVGGNKMLRASALFQSNKDYLRLDQTDRECNDMMAHKMKEPSQSCIAQYAFIHEDLNTVKAVCNSPVIACELKGGKCHKSSRPFDLTLCELSQPDQVTPNCNYLTSVIKKHIIITCNDMKRQLPTGQ [Q5GAN6]
- percentage of EdU-negative [1, 3]: 5.66 ± 1.3%
- percentage of EdU-negative ([1]; protein concentration 0.225 µM): 5.77 ± 0.33%
- percentage of EdU-negative [2, 3]: 27.3 ± 3.4%
- percentage of EdU-negative ([2]; protein concentration 0.225 µM): 25.2 ± 0.41%

Sequence: MLQGPGSLLLLFLASHCCLGSARGLFLFGQPDFSYKRSNCKPIPANLQLCHGIEYQNMRLPNLLGHETMKEVLEQAGAWIPLVMKQCHPDTKKFLCSLFAPVCLDDLDETIQPCHSLCVQVKDRCAPVMSAFGFPWPDMLECDRFPQDNDLCIPLASSDHLLPATEEAPKVCEACKNKNDDDNDIMETLCKNDFALKIKVKEITYINRDTKIILETKSKTIYKLNGVSERDLKKSVLWLKDSLQCTCEEMNDINAPYLVMGQKQGGELVITSVKRWQKGQREFKRISRSIRKLQC [Q96HF1]
- percentage of EdU-negative [1, 4]: 5.51 ± 0.23%
- percentage of EdU-negative [1, 5]: 5.34 ± 0.013%
- percentage of EdU-negative [2, 4]: 21.9 ± 2.5%
- percentage of EdU-negative [2, 5]: 26.3 ± 1.9%

Sequence: MLLLFLLFEGLCCPGENTAAPQALQSYHLAAEEQLSFRMLQTSSFANHSWAHSEGSGWLGDLQTHGWDTVLGTIRFLKPWSHGNFSKQELKNLQSLFQLYFHSFIQIVQASAGQFQLEYPFEIQILAGCRMNAPQIFLNMAYQGSDFLSFQGISWEPSPGAGIRAQNICKVLNRYLDIKEILQSLLGHTCPRFLAGLMEAGESELKRKVKPEAWLSCGPSPGPGRLQLVCHVSGFYPKPVWVMWMRGEQEQRGTQRGDVLPNADETWYLRATLDVAAGEAAGLSCRVKHSSLGGHDLIIHWGGYSIFLILICLTVIVTLVILVVVDSRLKKQSSNKNILSPHTPSPVFLMGANTQDTKNSRHQFCLAQVSWIKNRVLKKWKTRLNQLW
- percentage of EdU-negative [1, 6]: 4.889 ± 0.0055%
- percentage of EdU-negative ([1]; protein concentration 0.115 µM): 8.22 ± 0.88%
- percentage of EdU-negative [2, 6]: 28.7 ± 2.1%
- percentage of EdU-negative ([2]; protein concentration 0.115 µM): 26 ± 1.3%

Sequence: MKWLLLLGLVALSECIMYKVPLIRKKSLRRTLSERGLLKDFLKKHNLNPARKYFPQWEAPTLVDEQPLENYLDMEYFGTIGIGTPAQDFTVVFDTGSSNLWVPSVYCSSLACTNHNRFNPEDSSTYQSTSETVSITYGTGSMTGILGYDTVQVGGISDTNQIFGLSETEPGSFLYYAPFDGILGLAYPSISSSGATPVFDNIWNQGLVSQDLFSVYLSADDQSGSVVIFGGIDSSYYTGSLNWVPVTVEGYWQITVDSITMNGEAIACAEGCQAIVDTGTSLLTGPTSPIANIQSDIGASENSDGDMVVSCSAISSLPDIVFTINGVQYPVPPSAYILQSEGSCISGFQGMNLPTESGELWILGDVFIRQYFTVFDRANNQVGLAPVA [P0DJD7]
- percentage of EdU-negative [1, 7]: 4.41 ± 0.41%
- percentage of EdU-negative [1, 8]: 5.85 ± 0.73%
- percentage of EdU-negative [2, 7]: 25.5 ± 2.2%
- percentage of EdU-negative [2, 8]: 24.6 ± 1.6%

Sequence: MPALGWAVAAILMLQTAMAEPSPGTLPRKAGVFSDLSNQELKAVHSFLWSKKELRLQPSSTTTMAKNTVFLIEMLLPKKYHVLRFLDKGERHPVREARAVIFFGDQEHPNVTEFAVGPLPGPCYMRALSPRPGYQSSWASRPISTAEYALLYHTLQEATKPLHQFFLNTTGFSFQDCHDRCLAFTDVAPRGVASGQRRSWLIIQRYVEGYFLHPTGLELLVDHGSTDAGHWAVEQVWYNGKFYGSPEELARKYADGEVDVVVLEDPLPGGKGHDSTEEPPLFSSHKPRGDFPSPIHVSGPRLVQPHGPRFRLEGNAVLYGGWSFAFRLRSSSGLQVLNVHFGGERIAYEVSVQEAVALYGGHTPAGMQTKYLDVGWGLGSVTHELAPGIDCPETATFLDTFHYYDADDPVHYPRALCLFEMPTGVPLRRHFNSNFKGGFNFYAGLKGQVLVLRTTSTVYNYDYIWDFIFYPNGVMEAKMHATGYVHATFYTPEGLRHGTRLHTHLIGNIHTHLVHYRVDLDVAGTKNSFQTLQMKLENITNPWSPRHRVVQPTLEQTQYSWERQAAFRFKRKLPKYLLFTSPQENPWGHKRTYRLQIHSMADQVLPPGWQEEQAITWARYPLAVTKYRESELCSSSIYHQNDPWHPPVVFEQFLHNNENIENEDLVAWVTVGFLHIPHSEDIPNTATPGNSVGFLLRPFNFFPEDPSLASRDTVIVWPRDNGPNYVQRWIPEDRDCSMPPPFSYNGTYRPV
- percentage of EdU-negative ([1]; protein concentration 0.019 µM): 5.16 ± 1.3%
- percentage of EdU-negative ([1]; protein concentration 0.19 µM): 11 ± 0.68%
- percentage of EdU-negative ([2]; protein concentration 0.019 µM): 25 ± 4.8%
- percentage of EdU-negative ([2]; protein concentration 0.19 µM): 29.1 ± 1.2%

Sequence: MTVFLSFAFLAAILTHIGCSNQRRSPENSGRRYNRIQHGQCAYTFILPEHDGNCRESTTDQYNTNALQRDAPHVEPDFSSQKLQHLEHVMENYTQWLQKLENYIVENMKSEMAQIQQNAVQNHTATMLEIGTSLLSQTAEQTRKLTDVETQVLNQTSRLEIQLLENSLSTYKLEKQLLQQTNEILKIHEKNSLLEHKILEMEGKHKEELDTLKEEKENLQGLVTRQTYIIQELEKQLNRATTNNSVLQKQQLELMDTVHNLVNLCTKEGVLLKGGKREEEKPFRDCADVYQAGFNKSGIYTIYINNMPEPKKVFCNMDVNGGGWTVIQHREDGSLDFQRGWKEYKMGFGNPSGEYWLGNEFIFAITSQRQYMLRIELMDWEGNRAYSQYDRFHIGNEKQNYRLYLKGHTGTAGKQSSLILHGADFSTKDADNDNCMCKCALMLTGGWWFDACGPSNLNGMFYTAGQNHGKLNGIKWHYFKGPSYSLRSTTMMIRPLDF
- percentage of EdU-negative [1, 9]: 4.915 ± 0.017%
- percentage of EdU-negative [1, 10]: 8.6 ± 2%
- percentage of EdU-negative [2, 9]: 25.2 ± 0.66%
- percentage of EdU-negative [2, 10]: 26.4 ± 0.81%
